Data on 18 molecules can be found in patent US20180222987A1.

Residue numbers refer to the chain shown, from its start.

In assay [1] the target is human CD123 on cells (human) (UniProt P26951). Put plainly: flow cytometry, TF-1 cells, 3 µg antibody.
Assay [2] shares this target. Description: flow cytometry, THP-1 cells, 3 µg antibody.
Assay [3] has as its target Macaca fascicularis CD3ε/δ-Fc fusion heterodimer (Macaca fascicularis) (UniProt Q95LI8). Description: SPR Biacore, Fab; unit inferred. On the technique in general: SPR reads the build-up and loss of mass on a sensor chip optically.
The target in assay [4] is human CD123 on cells (human) (UniProt P26951). Put plainly: cell-based or functional assay.
The target in assay [5] is Macaca fascicularis CD3ε/δ-Fc fusion heterodimer (Macaca fascicularis) (UniProt Q95LI8). Put plainly: SPR, cyno against human CD3ε/δ.
The target is the same in assay [6]. Description: SPR, steady state.
Assay [7] shares this target. Description: SPR, CD3ε/δ-Fc captured, Fab analyte.

Sequence of Macaca fascicularis CD3ε/δ-Fc fusion heterodimer (Macaca fascicularis) (chain, as listed by the source mutant, chain 1 of 2): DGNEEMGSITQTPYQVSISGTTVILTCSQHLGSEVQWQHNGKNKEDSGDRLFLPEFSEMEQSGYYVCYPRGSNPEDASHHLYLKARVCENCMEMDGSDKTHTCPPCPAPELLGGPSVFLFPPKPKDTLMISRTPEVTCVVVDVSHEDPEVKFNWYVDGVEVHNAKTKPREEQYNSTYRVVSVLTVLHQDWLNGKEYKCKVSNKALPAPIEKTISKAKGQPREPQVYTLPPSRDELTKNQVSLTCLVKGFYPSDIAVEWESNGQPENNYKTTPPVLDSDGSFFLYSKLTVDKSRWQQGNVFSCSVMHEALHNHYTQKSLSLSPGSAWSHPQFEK
Sequence of Macaca fascicularis CD3ε/δ-Fc fusion heterodimer (Macaca fascicularis) (Q95LI8 22-105, stated change not applied, chain 2 of 2): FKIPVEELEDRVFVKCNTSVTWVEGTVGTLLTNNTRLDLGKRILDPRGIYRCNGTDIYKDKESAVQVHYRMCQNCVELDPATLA
Sequence of human CD123 on cells (human) (P26951 19-378): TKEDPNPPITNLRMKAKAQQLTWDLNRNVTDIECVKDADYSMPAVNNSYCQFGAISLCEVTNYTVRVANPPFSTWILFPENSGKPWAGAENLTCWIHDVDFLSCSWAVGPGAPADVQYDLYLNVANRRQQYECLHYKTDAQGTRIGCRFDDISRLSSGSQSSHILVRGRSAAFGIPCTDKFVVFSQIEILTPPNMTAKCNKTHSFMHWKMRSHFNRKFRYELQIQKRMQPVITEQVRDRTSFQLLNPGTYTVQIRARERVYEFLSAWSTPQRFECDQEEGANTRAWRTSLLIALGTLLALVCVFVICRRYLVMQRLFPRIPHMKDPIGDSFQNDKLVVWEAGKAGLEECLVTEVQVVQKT

B1: CODV-Fab BFX-9F6-G3 × CD3 (bispecific antibody, part only; not given: CD3 arm, linkers, constant domains, tag, V domains shown, not shown: another chain or arm of the molecule; a dimerising Fc or GST; small tags and cut ends)
VH: QVQLQESGPTLVKPGDSVKMSCKASGYTFTDYIIHWVKQSHGKSLEWIGYINPYSDGTNYNEKFKSKATLTVDKSTSTAYMEFSRLTSEDSAIYFCALNYGSYYAMDAWGQGTSVTVSS
VL: DIQMTQSPASLSASLGETVTIECRPSEDIHSNVAWYQQKPGNSPQLLIYDASNLADGVPSRFSGSGSGTQYSLKINSLQSEDVASYFCHQYNIYPYTFGSGTKLELK
With B1, the % FITC positive cells in assay [1] came to 60.7%; in assay [2] it was 99.7%.

B2: CODV-Fab BFX-9B8-G6 × CD3 (bispecific antibody, part only; not given: CD3 arm, linkers, constant domains, tag, V domains shown, not shown: another chain or arm of the molecule; a dimerising Fc or GST; small tags and cut ends)
VH: EVKLQESGPSLVQSSQTLSLTCTVSGFSLTSYHIHWVRQPPGKGLEWMGVMWSDGDTSYSSALKSRLSISRDTSQSQVFLKMNSLQTEDTATYYCARGDYSSYIYLWFAYWGQGTLVTVSS
VL: DIVMTQSPSSLAVSAGETVTINCKSSQSFLSSGDERNYVAWYQHKPGQSPKLLIYWASTRHSGVPDRFIGSGSGTDFTLTISSVQAEDLAIYYCQQYYDTPLTFGSGTKLEIK
Consider B2, for which the % FITC positive cells in assay [1] was 31.1%; in assay [2], 48.8%.

B3: CODV-Fab BFX-9D7-C8 × CD3 (bispecific antibody, part only; not given: CD3 arm, linkers, constant domains, tag, V domains shown, not shown: another chain or arm of the molecule; a dimerising Fc or GST; small tags and cut ends)
VH: B2 VH with P40T, S60N, D99Y, I104L
VL: B2 VL with A15E, E35G, R36K, H44Y, H61Q, S83T
For the molecule B3, the % FITC positive cells in assay [1] was found to be 50.2%; in assay [2], 88.7%.

B4: humanized 4B4 Fab 4B4_5 (VL2C / VH6D) (Fab, V domains shown)
VH: QVQLVESGGGVVQPGRSLRLSCATSGFTFSNAWMHWVRQAPGKQLEWVAQIKARSNNYATYYADSVKGRFTISRDDSKSTIYLQMNSLRAEDTAVYYCRGTYYASKPFDYWGQGTLVTVSS
VL: DIVMTQTPLSLSVTPGQPASISCKSSQSLVHDNGNTYLSWSLQKPGQSPQVLIYKVSNRFSGVPDRFSGSGSGTDFTLKISRVEAEDVGVYYCGQGTQYPFTFGSGTKLEIK
In the case of B4, the equilibrium dissociation constant (Kd) (as a rule, the equilibrium constant for the complex coming apart) in assay [3] amounted to 16.6 nM.

B5: humanized 4B4 Fab 4B4_10 (VL1_CM2 / VH6_BM2) (Fab, V domains shown)
VH: B4 VH with G10R, S21T, T24A, D64E, L116T
VL: B4 VL with I2V, T7S, P15L, A19V, K24R, K44R, Q50R
In assay [3], B5 came in with a dissociation constant (Kd) of 8.94 nM.

B6: humanized 4B4 Fab 4B4_11 (VL1_CM3 / VH6_BM2) (Fab, V domains shown)
VH: B4 VH with G10R, S21T, T24A, D64E, L116T
VL: B4 VL with I2V, T7S, P15L, A19V, K24R, G34A, K44R, Q50R
With B6, the Kd in assay [3] was determined as 20.4 nM.

B7: humanized 4B4 Fab 4B4_20 (VL2F / VH6C) (Fab, V domains shown)
VH: B4 VH with T24A, I81L
VL: B4 VL with G34A, S41Y, V51S, L109V
With B7, the dissociation constant (Kd) in assay [3] is 43.4 nM.

B8: CODV-Fab BFX-2F8-D6 × CD3 (bispecific antibody, V domains shown, not shown: a dimerising Fc or GST; small tags and cut ends)
VH: QVQLKESGPGLVQPSQTLSLTCTVSGFSLTSYGVSWVRQPPGKGLEWIATISSAGSTYYDLVLKSRLSITRDTSKSQVFLKVHSLQTEDTAIYLCARDAPVFNYGSYNAMDSWGQGTSVTVSS
VL: DIQMTQSPSFLSATVGDRVTINCKASQNINKYLNWYQQKLGEAPKRLIYNTNSLQTGIPSRFSGSGSGTDYTLTISSLQPEDVATYFCLQHKSGLTFGSGTKLEIK
Consider B8, for which the % FITC positive cells in assay [1] was determined as 9.3%; in assay [2], 24%.

B9: CODV-Fab BFX-3E3-D3 × CD3 (bispecific antibody, part only; not given: CD3 arm, linkers, constant domains, V domains shown, part only)
VH: QVQLQESGPGLVQPSQTLSLTCTVSGFSLTTYDVHWVRQPPGKGLEWMGRIQNGGITDYNSALKSRLIISRDTSKSQVFLKMNSVQTEDTAMYFCAKTGSYFYAFDHWGQGTLVTVSS
VL: QFVLTQPNSVSTNLGSTVKLSCKRNTGNIGSNYVNWYQQHEGRSPTTMIYRDDKRPDGVPDRFSGSIDRSSNSALLTINNVQTEDEADYFCQSYSSGINIIFGGGTKLTVL
In assay [4], B9 had an EC50 cytotoxic assay (THP-1), geomean of 0.0122 µg/mL. Further, the % FITC positive cells in assay [1] was 31.6%; in assay [2], 99%.

B10: CODV-Fab 7G3 × OKT3 (bispecific antibody, part only; not given: OKT3 variable domains, full chains, V domains shown, part only)
VH: EVQLQQSGPELVKPGASVKMSCKASGYTFTDYYMKWVKQSHGKSLEWIGDIIPSNGATFYNQKFKGKATLTVDRSSSTAYMHLNSLTSEDSAVYYCTRSHLLRASWFAYWGQGTLVTVSA
VL: DFVMTQSPSSLTVTAGEKVTMSCKSSQSLLNSGNQKNYLTWYLQKPGQPPKLLIYWASTRESGVPDRFTGSGSGTDFTLTISSVQAEDLAVYYCQNDYSYPYTFGGGTKLEIK
For the molecule B10, the Activity EC50 (cytotoxic assay, THP-1 targets + primary human T cells) in assay [4] was determined as 0.016 µg/mL.

B11: 12D2-E5 Fab (Fab, V domains shown)
VH: EVKLVESGGGLVQPGRSLRLSCAASGFNFYAYWMGWVRQAPGKGLEWIGEIKKDGTTINYTPSLKDRFTISRDNAQNTLYLQMTKLGSEDTALYYCAREERDGYFDYWGQGVMVTVSS
VL: QFVLTQPNSVSTNLGSTVKLSCKRSTGNIGSNYVNWYQQHEGRSPTTMIYRDDKRPDGVPDRFSGSIDRSSNSALLTINNVQTEDEADYFCQSYSSGIVFGGGTKLTVL
As for B11, the ratio KD(cy)/KD(hu) in assay [5] was found to be 4. Besides, the dissociation constant Kd in assay [6] turned out to be 4.8 nM.

B12: humanized 4B4 Fab 4B4_6 (VL1a / VH1A) (Fab, V domains shown)
VH: QVQLVETGGGLVKPGQSLKLTCATSGFTFSNAWMHWVRQSPEKGLEWVAQIKARSNNYATYYAESVKGRFTISRDDSKSTIYLQMNSLTPEDTAIYYCRGTYYASKPFDYWGQGVMVTVSS
VL: DVVMTQTPVSLSVSVGGRVSISCRSSQSLVHDNGNTYLSWSLQKPGKSPKVLIYKVSNRFSGVSSRFTGSGSGTDFTLKISSVQPDDLGVYYCGQGTQYPFTFGSGTKLEIK
For the molecule B12, the Kd in assay [3] was 1.19 nM.

B13: humanized 4B4 Fab 4B4_9 (VL2B / VH2A) (Fab, V domains shown)
VH: B12 VH with Q1E, K13Q, Q16G, T89R, P90A
VL: B12 VL with V15P, R18P, G34A, K47Q, K50Q, S65D, S82R, Q84E
In turn, B13 gave an equilibrium dissociation constant (Kd) in assay [3] of 12.1 nM.

B14: humanized 4B4 Fab 4B4_7 (VL1b / VH1A) (Fab, V domains shown)
VH: B12 VH
VL: B12 VL with G34A
For B14, in assay [3], the Kd was determined as 7.28 nM.

B15: 1E6 Fab (Fab, V domains shown)
VH: EVQLVETGGSLVQPGKSLKLTCATSGFTFSYAWMHWVRQSPDKQLQWVAQIKAKSNNYATYYAESVEGRFTISRDDSKSSVYLQMNSLKEEDTAIYYCRGVYYGLLGLDAWGQGTSVTVSS
VL: DVVMTQTPVSLSVRLGGQVSISCRSSQSLVHNNGNTYLSWFLQKPGQSPQLLIYKVSNRFSGISDRFSGSASGTDFTLKISRVEPDDLGVYYCGQGTHYPFTFGSGTKLEIK
Turning to B15, the ratio KD(cy)/KD(hu) in assay [5] turned out to be 1. Besides, in assay [7], the Kd was determined as 42 nM; the dissociation rate constant (koff) (commonly the rate constant with which the complex falls apart) amounted to 0.0042 s⁻¹; the on-rate (kon) – broadly, the rate constant with which the complex forms – worked out at 100000 M⁻¹ s⁻¹.

B16: 5B1-G2 Fab (Fab, V domains shown)
VH: EVQVVETGGSLVQPGKSLKLTCATSGFSFSNAWMHWVRQSPEKQLEWVAQIKDKANNYATYYAESVKGRFTISRDDSKGSIYLQMNSLKEEDTAVYYCRGLYYGLFPSDYWGQGVMVTVSS
VL: B15 VL with R14S, F41Y, Q43L, S70G, A71G, V83L, V90I, H98Q
With B16, the ratio KD(cy)/KD(hu) in assay [5] is 1. In assay [7], the Kd stood at 4.3 nM, the dissociation rate constant (koff) is 0.00015 s⁻¹ and the association rate constant (kon) worked out at 34000 M⁻¹ s⁻¹.

B17: humanized 4B4 Fab 4B4_17 (VL2A / VH2B) (Fab, V domains shown)
VH: B12 VH with Q1E, K13Q, Q16G, E64D, T89R, P90A
VL: B12 VL with V15P, R18P, K47Q, K50Q, S65D, S82R, Q84E
In assay [3], B17 had a dissociation constant Kd of 9.07 nM. This counts as single-digit nanomolar.

B18: 13H2 Fab (Fab, V domains shown)
VH: EEELVETGGSLVQPGKSLKLTCATSGFTFSNAWMHWVRQSPDKQLEWVAQIKAKSNNYATYYAESVKGRFTISRDDSKSSVYLQMNNLKEEDTAIYYCRYVHYGLAPMDAWGQGTSVTVSS
VL: B15 VL with R14S, F41Y, P45A, A71G, T77I, Y91F, H98Q, S105A, I111L
In the case of B18, in assay [5], the ratio KD(cy)/KD(hu) worked out at 1. Besides, in assay [7], the Kd amounted to 32 nM, the koff is 0.0059 s⁻¹ and the on-rate (kon) is 180000 M⁻¹ s⁻¹.
